{"source": "the supplement of paper PMC9170038"}
{"system": "MS2 coat protein", "assay": "apparent KD of MS2 coat protein; higher = weaker reporter binding", "settings": "Eterna round: R107; input ligand: theophylline 20 uM", "experimental": "(§1)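 RNA-MaP round R107: designed RNA switches with theophylline, tryptophan, arginine or FMN aptamers are transcribed on-chip within common flanks. They are titrated with SNAP-549-labelled MS2 coat protein in RNA-MaP buffer (100 mM Tris pH 7.5, 80 mM KCl, 4 mM MgCl2), without ligand or with the indicated ligand. Median apparent KD per design.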", "units": {"apparent KD of MS2 coat protein": "nM"}}
{"sequence": "ACACGUGAGGAUCAUCCAUGUGCCCAUGAAGGAGCGUGGGAAACCACAGGUAGGUCGCAUGACAUGAGGAUCACCCAUGUUUAUU [#04 Exclusion - Arginine A]", "apparent KD of MS2 coat protein": 109}
{"sequence": "AAUCGGAGAUGAAGGAGCGCGUACAUGAGGAUCACCCAUGUAUCAAAGCUUCUCCCGUGUAUGCAGGUAGGUCGCAUUUCCACGU [Ceriedan]", "apparent KD of MS2 coat protein": 13}
{"sequence": "GCGAUACAUGAGGAUCACCCAUGUGCAGAUACCAGAGGUGCAUGCCUCCCUUGGCAGCUGCGACGCUCUGGCAUCUUGUGGGAUG [Same State Theophylline A GF20]", "apparent KD of MS2 coat protein": 86.4}
{"sequence": "AGCCCGUGAGCGGCCGCCACUGGAGGCUUUGCGCGACAUGAGGAUCACCCAUGUGUGCCCGGCGUUAGGACCGGGUUCGCGUGGU [#1 Same State - Tryptophan B Attempt #18 (HarryS)]", "apparent KD of MS2 coat protein": 48.7}
{"sequence": "CUGCCAUGCAGAGAUACCAGUGCGCUCAGCACAUGAGGAUCACCCAUGUCGGCUGCCGAUCACCCUUGGCAGCUCUGCAUGGCAG [?@#$_]", "apparent KD of MS2 coat protein": 13}
{"sequence": "CUCCUGGGAGCGGCCGCCACUGGAGGCCUCGCGCGACAUGAGGAUCACCCAUGUUGGCCCGGCCUCAGGACCGGGUUCGCGCGAG [Same State - Tryptophan B Attempt #3]", "apparent KD of MS2 coat protein": 17.9}
{"sequence": "GCAUUAUUAUUAGAUACCAGUGUCGCAGGCGACAUGAGGAUCACCCAUGUAAAGUUACUCCACCCUUGGCAGCUAGUUCGACUAC [theeternabot_sameState_MS2_Theo_B_21]", "apparent KD of MS2 coat protein": 124}
{"sequence": "GAUGAACUAUAUGAUACCAGACAACAUGAGGAUCACCCAUGUGUAUGUCGUCCUCUGCCUGUCCCUUGGCAGCGUAUAGUUUAUC [XTheo B #17]", "apparent KD of MS2 coat protein": 70.1}
{"sequence": "AAUACCGGAUCGGCCGCCACUGGUUGGCCCUGUGUACAUGAGGAUCACCCAUGUCCAUCCCAAACCAGGACCGGGAUCUUUGUGC [Ededmate]", "apparent KD of MS2 coat protein": 15.8}
{"sequence": "AGCGCAGGUCCUGAUACCAGAGACAUGAGGAUCACCCAUGUCCGGUGGUCCUGCCACAGGCUCCCUUGGCAGCAGGGCUUGUGCU [Exclusion Theophylline B GF9]", "apparent KD of MS2 coat protein": 40.8}
{"sequence": "UCCUCCUCCGCAAGGAGGAGGAGUUGCGAUACCAGCACGGCAACGUGCCCUUGGCAGCGCACAUGAGGAUCACCCAUGUCAUGUU [#1 Exclusion - Theophylline A Attempt #10 (HarryS)]", "apparent KD of MS2 coat protein": 29.5}
{"sequence": "ACUUCAUGAGGUGAUACCAGCCAAUGACAUGAGGACAUGAGGAUCACCCAUGUUUAUGUAGGCCCUUGGCAGCAUUGUAACAUGA [Same State Theophylline B 4]", "apparent KD of MS2 coat protein": 126}
{"sequence": "ACAUGAGGAUCACCCAUGUGUGUAAAUCCUCGAGGACCGGUACGGCCGCCACUCGAACGAGUGUAAGAUGAAUGUUACAUUCAUC [SS Trp A s2]", "apparent KD of MS2 coat protein": 134}
{"sequence": "GCAUCCUAGUCGGCCGCCACUGCAAUUGUAAUACUGCUACAUGAGGAUCACCCAUGUCCAUGUAGCAGGACCGGGACUAGGAUGC [SS Tryp B #16]", "apparent KD of MS2 coat protein": 728}
{"sequence": "ACAUGAGGAUCACCCAUGUAAUGGCACGAUACCAGCUGAUCCCGUGGCCCUUGGCAGCGUCCGGUGUGGUCCGGCGGGUUGGACG [LLLMULLIN]", "apparent KD of MS2 coat protein": 22.6}
{"sequence": "ACAUGAGGGCGAAGGAGCGCGAACAUGAGGAUCACCCAUGUCUAUAUCCGUCCGCAUGUAUCGCAGGUAGGUCGCGCUGUUACUU [#13 Exclusion - Arginine B]", "apparent KD of MS2 coat protein": 11.4}
{"sequence": "AAAUAAAUACAUGAGGAUCACCCAUGUGAAGGAGCGCCCGUUAGGGCAGGUAGGUCGCACAUGAAAGGGAAGCGAAAGAAAUAAU [ArgEX 15 #OpenEnded]", "apparent KD of MS2 coat protein": 24.5}
{"sequence": "ACGACGCAUAGUGAUACCAGUAGAACAUGAGGAUCACCCAUGUCUGUGACGCACAAACUCUGCCCUUGGCAGCACUAUGCGUCAG [SSTheo B #7]", "apparent KD of MS2 coat protein": 15.9}
{"sequence": "UGUAUGUGAUCUGAUACCAGCUUUGAUAACCUGAGGAUCACCCUGGUAAGGCGAAAGCCAAGCCCUUGGCAGCAGAUCGCAUACU", "apparent KD of MS2 coat protein": 34.5}
{"system": "MS2 coat protein", "assay": "apparent KD of MS2 coat protein; higher = weaker reporter binding", "settings": "Eterna round: R107; input ligand: theophylline 2 mM", "experimental": "as §1", "units": {"apparent KD of MS2 coat protein": "nM"}}
{"sequence": "AUAACAUGAGGAUCACCCAUGUAAGCUGAAGGAGCGGACGAAAGUCCAGGUAGGUCGCAGCGUUCCUUCACCUCAUGAGAAGGAG [SSArg-A #30 with U all better]", "apparent KD of MS2 coat protein": 24}
{"sequence": "UAAUGCAGGUCGGCCGCCACUACAACAUGAGGAUCACCCAUGUACAUGUUGUAGUACGGUAUGAGUAGGACCGGGACCUGCAUAA [Trp-Ms2-M'-T'-(MT)'_Design1]", "apparent KD of MS2 coat protein": 594}
{"sequence": "AAUGUGAAGGCGGCCGCCACUGAUAAUAGACAUGAGGAUCACCCAUGUAUAAAUCCUCAAUAAGACAGGACCGGGCCAUCUACGU [#25 Exclusion Tryptophan B]", "apparent KD of MS2 coat protein": 122}
{"sequence": "ACGGAUCGGAAACGAUCCGCGGCUAGGGUGCGAGGACCGGUACGGCCGCCACUCGGGUAACAUGAGGAUCACCCAUGUCUGAUUU [ETA NP+V+V2 #14]", "apparent KD of MS2 coat protein": 118}
{"sequence": "AAUGUAUGGCACAUGAGGAUCACCCAUGUGCGAGGACCGGUACGGCCGCCACUCGGUCCUGGGAACUUAUUACUAUACAUUAAUG [XTryp A #18]", "apparent KD of MS2 coat protein": 13.1}
{"sequence": "ACAUGAGGAUCACCCAUGUAUGACUAUCCUCGAGGACCGGUACGGCCGCCACUCGAACGAGUGGCUCGCGAGUGCGCACUUGCGA [5' end]", "apparent KD of MS2 coat protein": 12.7}
{"sequence": "UUCGUAUUGUCGGCCGCCACUGCAACAUGAGGAUCACCCAUGUAAGAAUGGUUGUAAAUAUAUUACAGGACCGGGACAAUAGUAA [JR_ExcTryptoB_Sub018]", "apparent KD of MS2 coat protein": 23.4}
{"sequence": "UUUCUUUUCUUUCUUUCCUUUCAAACCGAAGGAGCGGGAACAAACCCAGGUAGGUCGCGGUGUGACAUGAGGAUCACCCAUGUGU [Exclusion - Arginine]", "apparent KD of MS2 coat protein": 85}
{"sequence": "UAAUUUAUAGGGUAUAUCAGAUUAACUGAAGGAGCGUGGUAAUACACAGGUAGGUCGCAGAUGGAACAUGAGGAUCACCCAUGUU [JR_ExcArginiA_Sub016]", "apparent KD of MS2 coat protein": 25.7}
{"sequence": "GAGUAGAAGACGGCCGCCACUAAACAUGAGGAUCACCCAUGUCGUGAUCCGUUACCUAGAGUAGAUAGGACCGGGUCAUAUAGUC [Exclusion Tryptophan B GF 15]", "apparent KD of MS2 coat protein": 30.2}
{"sequence": "GGCAAGCGAGACAUGAGGAUCACCCAUGUUCGAGGACCGGUACGGCCGCCACUCGGUGGACUCAUGGUAAAGCCGGUGAGCCAAA [AK 1 SS Trypt (A)]", "apparent KD of MS2 coat protein": 38}
{"sequence": "GAGACGUCGGGAAGGAGCGCAUCAAAACCACACAUGAGGAUCACCCAUGUAUAAAUAUGCAUGCAGGUAGGUCGCCCGGUGUCCA [SS-ArgB16]", "apparent KD of MS2 coat protein": 33.1}
{"sequence": "CCCAAAUAGAUAUUUGGGAUUUUACUCGAAGGAGCGUCAUAGUAGGCAGGUAGGUCGCGAGACAUGAGGAUCACCCAUGUAGAGA [ss-argA-N]", "apparent KD of MS2 coat protein": 45.1}
{"sequence": "AGGUACAGCAGGUGAUUCUGGCUGUACCAACGAGGACCGGUACGGCCGCCACUCGAAUAAACAUGAGGAUCACCCAUGUACAAAU [T''-M-T'-T-MS2 - Design 7]", "apparent KD of MS2 coat protein": 31.9}
{"sequence": "GGGAAAGGAGAAGAUACCAGCCGCCUCACAAGUCUACACUACAUGAGGAUCACCCAUGUGGGCCCUUGGCAGCUUGACCGCGAAA [theeternabot_exclusion_MS2_Theo_B_20]", "apparent KD of MS2 coat protein": 42}
{"sequence": "UUACAUGAGGAUCACCCAUGUCAUACAGAAGGAGCGUCACAUAAGACAGGUAGGUCGCUGUUAUUUUUUACUAUUAUAUCCUCUA [JR_Nu_ExcArginiA_Sub030]", "apparent KD of MS2 coat protein": 31.7}
{"sequence": "ACACGUGAGGAUCAUCCAUGUGCCCAUGAAGGAGCGUGGGAAACCACAGGUAGGUCGCAUGACAUGAGGAUCACCCAUGUUUAUU [#04 Exclusion - Arginine A]", "apparent KD of MS2 coat protein": 105}
{"sequence": "AAUCGGAGAUGAAGGAGCGCGUACAUGAGGAUCACCCAUGUAUCAAAGCUUCUCCCGUGUAUGCAGGUAGGUCGCAUUUCCACGU [Ceriedan]", "apparent KD of MS2 coat protein": 9.18}
{"sequence": "AGCCCGUGAGCGGCCGCCACUGGAGGCUUUGCGCGACAUGAGGAUCACCCAUGUGUGCCCGGCGUUAGGACCGGGUUCGCGUGGU [#1 Same State - Tryptophan B Attempt #18 (HarryS)]", "apparent KD of MS2 coat protein": 45.4}
